Patent US6551840B2, “Method of screening TGF-β-inhibiting substances” (Chugai Seiyaku Kabushiki Kaisha, priority 1997, dated 2003)

What was measured:
[1] = biological target: T1, binding between TAK1 and TAB1 (Homo sapiens, UniProt O43318); experiment: Immunoprecipitation and Western analysis binding-inhibition study using synthetic peptides; design: dose or concentration left out as unconfirmed; details: COS-7 cell extracts with TAK1-6×His or FLAG-TAB1; compared to no peptide
T1 construct: amino acid Met at amino acid position 1 to amino acid Ser at amino acid position 579; made in house; host or cells: COS-7 cells transfected with pCOS-TAK1 or pCOS-FTAB1; unpurified cell extracts
T1 sequence (O43318 1-579 isoform O43318-2): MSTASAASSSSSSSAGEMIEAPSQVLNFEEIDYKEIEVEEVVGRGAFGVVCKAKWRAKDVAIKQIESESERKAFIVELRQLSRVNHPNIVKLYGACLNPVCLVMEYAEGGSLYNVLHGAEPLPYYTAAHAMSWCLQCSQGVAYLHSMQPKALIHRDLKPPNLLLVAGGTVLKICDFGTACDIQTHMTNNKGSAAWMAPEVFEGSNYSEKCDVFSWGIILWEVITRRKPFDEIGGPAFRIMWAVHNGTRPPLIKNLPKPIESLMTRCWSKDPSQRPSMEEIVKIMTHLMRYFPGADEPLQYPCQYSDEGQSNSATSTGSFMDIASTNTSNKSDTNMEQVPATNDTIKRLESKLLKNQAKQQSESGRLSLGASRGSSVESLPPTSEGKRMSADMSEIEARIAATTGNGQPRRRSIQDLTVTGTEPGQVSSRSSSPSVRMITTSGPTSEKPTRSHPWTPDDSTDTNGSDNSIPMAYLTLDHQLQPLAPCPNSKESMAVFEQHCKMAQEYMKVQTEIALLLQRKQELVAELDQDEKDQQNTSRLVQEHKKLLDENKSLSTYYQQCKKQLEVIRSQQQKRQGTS
Source text: The fact that a synthetic peptide containing the amino acid sequence identified as the TAK1 binding region can inhibit binding between TAK1 and TAB1 was confirmed by the following experiment. Thus, a peptide TAB1C-1 (SEQ ID NO: 40) comprising 16 amino acid residues containing the TAK1 binding region of TAB1 described in the above Example and a control peptide TAB1C-2 (SEQ ID NO: 41) containing an amino acid sequence from Gln at position 437 to Gln at position 451 of TAB1 were each synthesized, and were evaluated for their effects on the binding between TAK1 and TAB1. The TAK1 and TAB1 used in the present invention were prepared in the following manner. […]
Subsequently, cell extracts each containing TAK1-6×His or FLAG-TAB1 and a 5 mM synthetic peptide were mixed to a final concentration of […], respectively, and then incubated overnight at 4° C. It was then immunoprecipitated using anti-TAK1 antibody, and the amount of bound TAK1 and TAB1 was evaluated by determining the amount of TAB1 that coprecipitated by Western analysis. […] After it was blocked using a TBS solution containing 5% BSA, TAK1 in the immunoprecipitate was detected using anti-TAK1 antibody (manufactured by SantaCruz) and the coprecipitataed FLAG-TAB1 was detected using anti-FLAG M2 antibody (manufactured by Kodak). […]

[2] = biological target: T2, human TAK1-6×His polypeptide (Homo sapiens, UniProt O43318); experiment: ELISA in vitro binding-evaluation system: MBP-TAB1C-FLAG on immobilized TAK1-6×His; details: 100 ng TAK1-6×His per well; no increase where TAK1-6×His was not immobilized
T2 construct: amino acid Met at amino acid position 1 to amino acid Ser at amino acid position 579; made in house; host or cells: Sf9 insect cells, recombinant baculovirus
T2 sequence (O43318 1-579 isoform O43318-2): T1 sequence (O43318 1-579 isoform O43318-2)
Source text: Using the purified product obtained as above an ELISA system was constructed to detect in vitro an interaction between the recombinant human TAB1 polypeptide or the recombinant MBP-TAB1C-FLAG polypeptide and the recombinant human-TAK1 polypeptide. In the ELISA system it is intended to contact the recombinant human TAB1-FLAG polypeptide or the human MBP-TAB1C-FLAG polypeptide to a 96-well immunoplate to which the human TAK1-6×His polypeptide had been previously immobilized and thereby to detect the recombinant human TAB1-FLAG polypeptide or the recombinant MBP-TAB1C-FLAG polypeptide using a primary and secondary antibody.
(1) The purified product of human TAK1-6×His polypeptide was diluted in the immobilization buffer (0.1 M NaHCO3, 0.02% NaN3, pH 9.6). To each well of a 96-well immunoplate (manufactured by Nunc) was added 100 μl each of the diluted aqueous solution (equivalent to 100 ng of the human TAK1-6×His polypeptide), and the plate was incubated overnight at 4° C. […]
After each well was washed five times with the wash buffer, 100 μl of the color development solution (the substrate buffer; p-nitrophenyl phosphate dissolved to 1 mg/ml in 50 mM NaHCO3, 10 mM MgCl21 pH 9.8, manufactured by Sigma) was added to each well and was incubated at room temperature, and then absorbance at 405 nm was determined using a microplate reader (Model 3550, manufactured by BIO-RAD).

[3] = biological target: T3, binding between the recombinant MBP-TAB1C-FLAG polypeptide and the recombinant TAK1 polypeptide (Homo sapiens, UniProt O43318); experiment: ELISA binding-inhibition study with TAB1-FLAG as inhibiting substance; details: serially diluted TAB1-FLAG added together with MBP-TAB1C-FLAG
T3 construct: amino acid Met at amino acid position 1 to amino acid Ser at amino acid position 579; made in house; host or cells: TAK1-6xHis: Sf9/baculovirus; MBP-TAB1C-FLAG: E. coli periplasm (pMAL-p2)
T3 sequence (O43318 1-579 isoform O43318-2): T1 sequence (O43318 1-579 isoform O43318-2)
Description: It was investigated whether the recombinant human TAB1-FLAG polypeptide used as an inhibiting substance inhibits binding between the recombinant MBP-TAB1C-FLAG polypeptide and the recombinant TAK1 polypeptide.
In a similar manner to that in the above 5-1 (2), the recombinant human TAK1-6×His polypeptide was immobilized and was blocked. Then the recombinant human TAB1-FLAG polypeptide that was serially diluted in the dilution buffer was added as a binding-inhibiting substance to each well together with 16.5 μl each of the recombinant MBP-TAB1C-FLAG polypeptide and incubated.

“TAB1C-1: peptide comprising 16 amino acid residues containing the TAK1 binding region of TAB1 (SEQ ID NO: 40) (CVEPYVDFAEFYRGRK; OTHER INFORMATION: Description of Artificial Sequence: Synthetic peptide)” was tested, and the “effect on binding between TAK1 and TAB1: amount of coprecipitated FLAG-TAB1” value [1] was “a decrease in the amount of coprecipitated FLAG-TAB1 was observed”.

For “TAB1C-2: control peptide containing an amino acid sequence from Gln at position 437 to Gln at position 451 of TAB1 (SEQ ID NO: 41) (CQSPTLTLQSTNTHTQ; OTHER INFORMATION: Description of Artificial Sequence: Synthetic peptide)”, the “effect on binding between TAK1 and TAB1: amount of coprecipitated FLAG-TAB1” value [1] was “no decrease in binding between TAK1 and TAB1 was observed”.

B1: MBP-TAB1C-FLAG: fusion polypeptide of 81 amino acids at the carboxy terminal of human TAB1 and maltose-binding protein, with FLAG tag (protein)
chain: ASTLDEATPTLTNQSPTLTLQSTNTHTQSSSSSSDGGLFRSRPAHSLPPGEDGRVEPYVDFAEFYRLWSVDHGEQSVVTAPDYKDDDDK
modifications: left off: large carriers
In the case of B1, the “binding to immobilized human TAK1-6×His polypeptide, absorbance at 405 nm” value [2] is reported as “absorbance increased depending on the concentration”.

B2: TAB1-FLAG: full-length human TAB1 with a FLAG tag added to the carboxy terminal (SEQ ID NO: 11) (protein)
chain: MAAQRRSLLQSEQQPSWTDDLPLCHLSGVGSASNRSYSADGKGTESHPPEDSWLKFRSENNCFLYGVFNGYDGNRVTNFVAQRLSAELLLGQLNAEHAEADVRRVLLQAFDVVERSFLESIDDALAEKASLQSQLPEGVPQHQLPPQYQKILERLKTLEREISGGAMAVVAVLLNNKLYVANVGTNRALLCKSTVDGLQVTQLNVDHTTENEDELFRLSQLGLDAGKIKQVGIICGQESTRRIGDYKVKYGYTDIDLLSAAKSKPIIAEPEIHGAQPLDGVTGFLVLMSEGLYKALEAAHGPGQANQEIAAMIDTEFAKQTSLDAVAQAVVDRVKRIHSDTFASGGERARFCPRHEDMTLLVRNFGYPLGEMSQPTPSPAPAAGGRVYPVSVPYSSAQSTSKTSVTLSLVMPSQGQMVNGAHSASTLDEATPTLTNQSPTLTLQSTNTHTQSSSSSSDGGLFRSRPAHSLPPGEDGRVEPYVDFAEFYRLWSVDHGEQSVVTAPGTGGSDYKDDDDK
modifications: C-terminal FLAG tag
B2 was tested, and the “inhibition of binding between MBP-TAB1C-FLAG and TAK1-6×His, absorbance” value [3] was “decrease in absorbance dependent on the concentration”.
